Source: US20230174626A1 (GlaxoSmithKline, published 2023)

Tests used:
[1] = molecular target: ULs (UL128, UL130, UL131A of the HCMV Pentamer) on TB40 virus (Human Cytomegalovirus (HCMV), TB40 virus); assay: cell-based or functional assay
[2] = molecular target: HCMV glycoprotein H (gH) on TB40 virus (Human Cytomegalovirus (HCMV), TB40 virus); assay: cell-based or functional assay

Binder	IC50 (µg/ml), HCMV TB40 neutralization on ARPE-19 epithelial cells [1] [µg/mL]	IC50 (µg/ml), HCMV TB40 neutralization on MRC-5 fibroblasts [1] [µg/mL]	IC50 (µg/ml), HCMV TB40 neutralization on ARPE-19 epithelial cells [2] [µg/mL]	IC50 (µg/ml), HCMV TB40 neutralization on MRC-5 fibroblasts [2] [µg/mL]
humanized 26B6 mAb (antibody, human IgG1, kappa, V domains shown) VH: EVQLVESGGGLVKPGGSLKLSCAASGFTITDYYIYWLRQTPEKKLEWVAAISDGGRYTDYPDSVKGRFTMSSDNAKTNLYLQMGSLQSDDTGMYYCARWASYGYHWYFDVWGAGTTVTVSS VL: DIQMTQTTSSLSASLGDRVTISCSASQDISNYINWYQQKRDGTVKLLIYDSSSLHSGVPSRFSGSGSGTDYSLTISNLEPEDFATYFCQQYSNLPPTFGGGTNLEIKR	0.00407	> 10		
humanized 2C7 mAb (antibody, human IgG1, kappa, V domains shown) VH: EVQLQQSGPELEKPGASVKISCKASGYSFTGYNMNWVKQSNGKSLEWIGNIDPYFGGTSYNQKFKGKATLTVDKSSSTAYMELKSLTSEDSAVYYCARHYGYFPWFAYWGQGTLVTVSA VL: DIVLTQSPASLAVSLGQRATISCRASESVDSSGNSFMHWYQQKPGQPPKLLIYRASNLESGIPARFSGSGSRTDFTLTINPVGADDVATYYCQQSNEDPWTFGGGTKLEIKR			0.0915	0.53
humanized 23C2 mAb (antibody, human IgG1, kappa, V domains shown) VH: DVQLQESGPGLVKPSQSLSLTCSVTGYSIKSGYYWNWIRQFPGNKLEWMGYISYGGDFTYNPSLKNRISITRDTSKNQFFLKLNSVTTEDTATYFCVREPNWESYFDIWGAGTTVTVSS VL: DIQMTQSPASLSASVGETVTITCRASDNIYSYLTWYHQKQGKSPHLLVYNAKTLPEGVPLRFSGTGSGTQFSLKINSLQPEDFGIYFCLHDYGFPRTFGGGTILEVKR	0.0031	> 10		
